US20250213715A1, “ANTI-CSPG4 BINDING AGENTS, CONJUGATES THEREOF AND METHODS OF USING THE SAME” (Ardeagen Corporation, priority 2020, published 2025)

Columns and labels:
[1] = target: T1, CSPG4 (chondroitin sulfate proteoglycan 4) on human tumor cell lines (human, UniProt Q6UVK1 30-2322); experiment: flow cytometry on A375 melanoma cells, 6-point dose curve, anti-hIgG-AF488
T1 construct: Endogenous CSPG4 on human cell lines (A2058, Malme-3M, A375, SW1353, NCI-H2052); also called HMW MAA; MCSP
Experimental: (§1) Flow Cytometry—Cells were rinsed with PBS (phosphate buffered saline, pH 7.4) and harvested with Versene (Thermo Fisher) prior to incubation with FACs buffer (PBS+1% fetal bovine serum (FBS; source BioSun) containing test antibody or ADCs for 1 h at 4° C. Cells were rinsed and washed with FACs buffer (PBS+1% FBS) and detection was performed with anti-bigG-AF488. Cells were analyzed on a FACs Canto II (BD Biosciences). Quantitative FACs (qFACs) was performed to measure the number of antigen binding sites with the DAKO QifiKit (DAKO, Carpinteria, CA), according to the manufacturer's directions.
(§2) The CSPG4+A2058 and A375 melanoma and the lung NCI-H2052 and NCI-H1975 cell lines were incubated with increasing concentrations of the antibody (6-point dose curve) for 1 hr at 4° C. Detection was done with an anti-hIgG-AF488 secondary antibody.
(§3) The data were graphed and estimated binding constants (EC50 in table) were determined with Prism (GraphPad Software, San Diego, CA).

[2] = target: T1, CSPG4 (chondroitin sulfate proteoglycan …); experiment: flow cytometry on NCI-H2052 lung cells, 6-point dose curve, anti-hIgG-AF488
Experimental: as §1, §2, §3

[3] = target: T1, CSPG4 (chondroitin sulfate proteoglycan …); experiment: flow cytometry on A2058 melanoma cells, 8-point dose curve, anti-hIgG-AF488
Experimental: as §1
(§4) FACs binding of ARD107 antibody and corresponding conjugates to CSPG4-positive cell lines was conducted. The melanoma A2058 and Malme-3M, the SW1353 chondrosarcoma, and the NCI-H1975 lung cell lines were incubated with increasing concentrations (8-point dose curve) of the antibody, conjugates (ARD107-vcMMAE or ARD107-SN38 (ARD107-CL2A-SN-38)), or isotype control (hIgG1) for 1 hr at 4° C. Detection was done with an anti-hIgG-AF488 secondary antibody.

[4] = target: T1, CSPG4 (chondroitin sulfate proteoglycan …); experiment: flow cytometry on Malme-3M melanoma cells, 8-point dose curve, anti-hIgG-AF488
Experimental: as §1, §4

[5] = target: T1, CSPG4 (chondroitin sulfate proteoglycan …); experiment: flow cytometry on A2058 melanoma cells, 6-point dose curve, anti-hIgG-AF488
Experimental: as §1, §2, §3

[6] = target: T1, CSPG4 (chondroitin sulfate proteoglycan …); experiment: flow cytometry on SW1353 chondrosarcoma cells, 8-point dose curve, anti-hIgG-AF488
Experimental: as §1, §4

T1 sequence (Q6UVK1 30-2322 limits assumed): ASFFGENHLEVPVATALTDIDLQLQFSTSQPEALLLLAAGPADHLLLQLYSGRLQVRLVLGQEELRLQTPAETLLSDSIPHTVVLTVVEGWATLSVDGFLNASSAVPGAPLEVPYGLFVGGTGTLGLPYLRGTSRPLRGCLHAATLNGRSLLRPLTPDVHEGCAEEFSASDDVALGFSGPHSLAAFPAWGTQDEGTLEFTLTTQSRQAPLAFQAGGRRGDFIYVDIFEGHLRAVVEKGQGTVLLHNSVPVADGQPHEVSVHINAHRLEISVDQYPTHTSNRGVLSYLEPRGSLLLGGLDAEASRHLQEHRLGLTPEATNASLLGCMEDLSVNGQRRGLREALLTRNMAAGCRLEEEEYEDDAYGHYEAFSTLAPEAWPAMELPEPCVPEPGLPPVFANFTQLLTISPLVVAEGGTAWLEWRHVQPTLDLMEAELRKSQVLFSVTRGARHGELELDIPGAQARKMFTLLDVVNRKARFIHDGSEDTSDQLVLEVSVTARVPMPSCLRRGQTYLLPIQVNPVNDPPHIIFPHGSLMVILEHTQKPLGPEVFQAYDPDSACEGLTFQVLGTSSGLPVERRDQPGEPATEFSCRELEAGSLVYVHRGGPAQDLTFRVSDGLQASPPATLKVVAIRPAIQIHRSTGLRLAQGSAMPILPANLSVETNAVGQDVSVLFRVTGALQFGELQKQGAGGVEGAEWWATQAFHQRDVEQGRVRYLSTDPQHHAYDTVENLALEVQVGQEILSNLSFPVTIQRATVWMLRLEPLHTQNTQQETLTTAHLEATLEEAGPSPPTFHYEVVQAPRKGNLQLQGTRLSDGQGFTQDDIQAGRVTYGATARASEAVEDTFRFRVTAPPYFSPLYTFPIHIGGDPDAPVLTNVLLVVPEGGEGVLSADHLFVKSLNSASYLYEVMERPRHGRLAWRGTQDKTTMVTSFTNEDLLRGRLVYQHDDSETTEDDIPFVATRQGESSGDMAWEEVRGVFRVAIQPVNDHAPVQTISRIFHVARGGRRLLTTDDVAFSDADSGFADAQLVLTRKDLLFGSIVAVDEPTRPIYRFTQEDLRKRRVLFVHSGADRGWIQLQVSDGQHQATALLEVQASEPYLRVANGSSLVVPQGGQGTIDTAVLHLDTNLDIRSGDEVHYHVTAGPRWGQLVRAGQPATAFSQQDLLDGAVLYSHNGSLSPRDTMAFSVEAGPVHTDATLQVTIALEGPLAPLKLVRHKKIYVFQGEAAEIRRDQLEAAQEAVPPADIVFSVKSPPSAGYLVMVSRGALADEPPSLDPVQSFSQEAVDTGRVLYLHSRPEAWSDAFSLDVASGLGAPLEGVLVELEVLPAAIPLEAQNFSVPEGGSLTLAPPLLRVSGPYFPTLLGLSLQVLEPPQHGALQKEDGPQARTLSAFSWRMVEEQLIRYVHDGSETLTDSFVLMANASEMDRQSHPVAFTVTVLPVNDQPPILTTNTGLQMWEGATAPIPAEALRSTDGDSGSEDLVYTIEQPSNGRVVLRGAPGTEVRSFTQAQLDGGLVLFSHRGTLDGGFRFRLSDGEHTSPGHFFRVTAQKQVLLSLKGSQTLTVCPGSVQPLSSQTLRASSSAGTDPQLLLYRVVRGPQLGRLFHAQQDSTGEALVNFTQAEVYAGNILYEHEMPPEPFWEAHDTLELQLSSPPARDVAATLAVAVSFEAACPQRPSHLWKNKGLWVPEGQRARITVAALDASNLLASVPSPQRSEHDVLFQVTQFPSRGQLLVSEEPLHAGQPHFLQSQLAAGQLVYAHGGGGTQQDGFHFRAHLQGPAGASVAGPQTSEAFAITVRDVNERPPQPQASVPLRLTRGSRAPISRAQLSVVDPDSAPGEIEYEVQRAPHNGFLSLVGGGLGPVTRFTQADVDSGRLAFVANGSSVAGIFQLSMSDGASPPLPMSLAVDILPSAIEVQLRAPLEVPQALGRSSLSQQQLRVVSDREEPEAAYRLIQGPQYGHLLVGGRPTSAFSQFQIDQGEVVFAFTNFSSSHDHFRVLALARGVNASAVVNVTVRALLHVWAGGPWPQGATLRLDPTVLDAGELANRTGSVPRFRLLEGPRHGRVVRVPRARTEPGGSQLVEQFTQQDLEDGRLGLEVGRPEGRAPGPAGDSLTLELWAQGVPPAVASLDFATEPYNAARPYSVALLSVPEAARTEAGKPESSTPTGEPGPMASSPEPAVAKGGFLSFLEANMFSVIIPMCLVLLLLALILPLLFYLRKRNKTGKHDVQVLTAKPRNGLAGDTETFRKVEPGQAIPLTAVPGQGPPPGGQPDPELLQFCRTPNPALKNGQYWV

B1: ARD107 antibody (antibody, human IgG1, kappa, V domains shown)
VH: EVQLQESGPGLVKPSQSLSLTCSVTGYSITSGYYWNWIRQFPGNKLEWMGYITYDGSNNYNPSLKNRISITRDTSKNQFFLKLNSVTTEDTATYYCADFDYWGQGTTLTVSS
VL: DIVLTQSPSSLSASLGDRVTISCSASQGIRNYLNWYQQRPDGTVKLLIYYTSSLHSGVPSRFSGSGSGTDYSLTISNLEPEDIATYYCQQYSKLPWTFGGGTKLEIKR
notes: also called unconjugated ARD107 monoclonal antibody
In the case of B1, the EC50 [1] is reported as 0.19 nM, the EC50 [2] is reported as 0.3 nM and the EC50 [3] is reported as 0.48 nM. It also gave an EC50 [4] of 0.59 nM, an EC50 [5] of 0.24 nM and an EC50 [6] of 0.21 nM.
